Experimental data as given in patent US20250195917A1, “SEQUENTIAL TRANSARTERIAL CHEMOEMBOLIZATION, STEREOTACTIC BODY RADIOTHERAPY, AND IMMUNOTHERAPY (START-FIT) FOR HEPATOCELLULAR CARCINOMA” (The University of Hong Kong, priority 2023, published 2025).
Where two headings read alike, the source gives them in different places.

Type: in vivo
Conditions: for Edema / Fatigue / Fever / Infusion-related reaction / Musculoskeletal pain / Others (Constitutional) / Weight decreased: Constitutional; for Constipation / Decreased appetite / Diarrhea / Gastritis/GI bleed / Nausea / Others (Gastrointestinal) / Stomatitis / Vomiting: Gastrointestinal; for Any adverse event: worst toxicity grade; for ALT increased / AST increased / Abdominal pain / Bilirubin raised / GGT increased: Hepatic; for Dermatitis / Hepatitis / Others immune-related: Immune-related; for Amylase increased / Anemia / Hypercreatinine / Hyperglycemia / Hypokalemia / Hyponatremia / Hypothyroidism / Leukopenia / Lipase increased / Neutropenia / Thrombocytopenia: Laboratory; for Dry skin / Others (Skin) / Pruritus / Rash, acneiform / Rash, maculopapular / Rash, urticarial: Skin
Method: All patients underwent a single treatment of conventional TACE within 28 days of study enrolment. Conventional TACE was performed by supra-selective cannulation of all the branches supplying the tumor. The emulsion was prepared by mixing iodised oil with cisplatin (1 mg/mL) in a 1:1 ratio. A maximum of 60 mL of emulsion was injected. Preparation of the emulsion was followed by embolisation with gelfoam (gelatin granules) pellets of 1 mm diameter mixed with 40 mg of gentamicin. At 28 days (plus or minus 3 days) after the completion of TACE, stereotactic body radiotherapy was delivered to all lesions. Patients were immobilised via a vacuum foam bag (Vac-Lok™; MEDTEC, IA, USA) and active breathing control to reduce liver motion. Imaging was performed on the inhale breath-hold contrast CT. Gross tumor volume was defined as a tumor focus that was visualised by contrast imaging. The clinical target volume was defined as gross tumor volume with expansion to include the area stained with iodised oil. The individualised planning target volume margins were formulated to compensate for respiratory motion and setup errors. Cone beam CT was acquired on board before each treatment. A radiation dose of 27.5-40.0 Gy in five fractions delivered daily was allowed per protocol. The prescription isodose encompassed 95% of the planning target volume. The final dose was determined such that a maximum tumoricidal dose could be delivered to tumors while respecting the tolerance dose of the organ at risk (Table 3). The radiotherapy toxicity was assessed by CTCAE; version 4.01.
All patients underwent baseline contrast-enhanced MRI of the liver and CT of the thorax. Treatment response evaluation was assessed with MRI after cycle 4, cycle 8, and cycle 12 of avelumab and every 12 weeks thereafter (plus or minus 7 days). Radiological imaging was reported using the modified Response Evaluation Criteria in Solid Tumors (mRECIST). A CT of the thorax was done every 26 weeks or at the time of radiological or clinical evidence of disease progression according to mRECIST criteria. All patients were discussed in a multidisciplinary team board meeting of surgeons specializing in liver transplantation and liver surgery, clinical oncologists, interventional radiologists, and diagnostic radiologists. This meeting was held once every 2 weeks to decide resectability and treatment failure. All patients underwent complete tumor staging to exclude distant metastasis before surgery. A board-certified radiologist conducted an independent blinded review in addition to the investigator review. Safety assessments were documented throughout the treatment period. Adverse events were graded according to the US National Cancer Institute Common Terminology Criteria for Adverse Events (CTCAE; version 4.01). The frequency, duration, and severity of adverse events were recorded.
The primary endpoint was the percentage of patients deemed to be amenable to curative treatment after conversion therapy. Amenability for curative treatment was fulfilled when one of the following criteria was met: either a sustained complete response or sustained partial response achieved for at least 2 months and if curative treatment could be performed (based on investigator's review). […] Post-hoc analyses included radiological response according to immune RECIST, correlation of clinical outcomes with BCLC stage, albumin-bilirubin score, radiological assessment criteria, biomarkers, and median time to treatment response.

avelumab
Edema (Grade 1-2): 0 (0%) number of patients (%)
Fatigue (Grade 1-2): 9 (27%) number of patients (%)
Fever (Grade 1-2): 1 (3%) number of patients (%)
Infusion-related reaction (Grade 1-2): 7 (21%) number of patients (%)
Musculoskeletal pain (Grade 1-2): 0 (0%) number of patients (%)
Others (Constitutional) (Grade 1-2): 9 (27%) number of patients (%)
Weight decreased (Grade 1-2): 7 (21%) number of patients (%)
Edema (Grade 3): 0 (0%) number of patients (%)
Fatigue (Grade 3): 0 (0%) number of patients (%)
Fever (Grade 3): 0 (0%) number of patients (%)
Infusion-related reaction (Grade 3): 0 (0%) number of patients (%)
Musculoskeletal pain (Grade 3): 0 (0%) number of patients (%)
Others (Constitutional) (Grade 3): 0 (0%) number of patients (%)
Weight decreased (Grade 3): 0 (0%) number of patients (%)
Edema (Grade 4): 0 (0%) number of patients (%)
Fatigue (Grade 4): 0 (0%) number of patients (%)
Fever (Grade 4): 0 (0%) number of patients (%)
Infusion-related reaction (Grade 4): 0 (0%) number of patients (%)
Musculoskeletal pain (Grade 4): 0 (0%) number of patients (%)
Others (Constitutional) (Grade 4): 0 (0%) number of patients (%)
Weight decreased (Grade 4): 0 (0%) number of patients (%)
Edema (Grade 5): 0 (0%) number of patients (%)
Fatigue (Grade 5): 0 (0%) number of patients (%)
Fever (Grade 5): 0 (0%) number of patients (%)
Infusion-related reaction (Grade 5): 0 (0%) number of patients (%)
Musculoskeletal pain (Grade 5): 0 (0%) number of patients (%)
Others (Constitutional) (Grade 5): 0 (0%) number of patients (%)
Weight decreased (Grade 5): 0 (0%) number of patients (%)
Constipation (Grade 1-2): 2 (6%) number of patients (%)
Decreased appetite (Grade 1-2): 4 (12%) number of patients (%)
Diarrhea (Grade 1-2): 4 (12%) number of patients (%)
Gastritis/GI bleed (Grade 1-2): 0 (0%) number of patients (%)
Nausea (Grade 1-2): 2 (6%) number of patients (%)
Others (Gastrointestinal) (Grade 1-2): 3 (9%) number of patients (%)
Stomatitis (Grade 1-2): 0 (0%) number of patients (%)
Vomiting (Grade 1-2): 1 (3%) number of patients (%)
Constipation (Grade 3): 0 (0%) number of patients (%)
Decreased appetite (Grade 3): 0 (0%) number of patients (%)
Diarrhea (Grade 3): 0 (0%) number of patients (%)
Gastritis/GI bleed (Grade 3): 0 (0%) number of patients (%)
Nausea (Grade 3): 0 (0%) number of patients (%)
Others (Gastrointestinal) (Grade 3): 0 (0%) number of patients (%)
Stomatitis (Grade 3): 0 (0%) number of patients (%)
Vomiting (Grade 3): 0 (0%) number of patients (%)
Constipation (Grade 4): 0 (0%) number of patients (%)
Decreased appetite (Grade 4): 0 (0%) number of patients (%)
Diarrhea (Grade 4): 0 (0%) number of patients (%)
Gastritis/GI bleed (Grade 4): 0 (0%) number of patients (%)
Nausea (Grade 4): 0 (0%) number of patients (%)
Others (Gastrointestinal) (Grade 4): 0 (0%) number of patients (%)
Stomatitis (Grade 4): 0 (0%) number of patients (%)
Vomiting (Grade 4): 0 (0%) number of patients (%)
Constipation (Grade 5): 0 (0%) number of patients (%)
Decreased appetite (Grade 5): 0 (0%) number of patients (%)
Diarrhea (Grade 5): 0 (0%) number of patients (%)
Gastritis/GI bleed (Grade 5): 0 (0%) number of patients (%)
Nausea (Grade 5): 0 (0%) number of patients (%)
Others (Gastrointestinal) (Grade 5): 0 (0%) number of patients (%)
Stomatitis (Grade 5): 0 (0%) number of patients (%)
Vomiting (Grade 5): 0 (0%) number of patients (%)
Adverse event, Lead to discontinuation (Grade 1-2): 0 (0%) number of patients (%)
Any adverse event (Grade 1-2): 27 (82%) number of patients (%)
Adverse event, Lead to discontinuation (Grade 3): 1 (3%) number of patients (%)
Any adverse event (Grade 3): 4 (12%) number of patients (%)
Adverse event, Lead to discontinuation (Grade 4): 1 (3%) number of patients (%)
Any adverse event (Grade 4): 1 (3%) number of patients (%)
Adverse event, Lead to discontinuation (Grade 5): 0 (0%) number of patients (%)
Any adverse event (Grade 5): 0 (0%) number of patients (%)
ALT increased (Grade 1-2): 7 (21%) number of patients (%)
AST increased (Grade 1-2): 6 (18%) number of patients (%)
Abdominal pain (Grade 1-2): 1 (3%) number of patients (%)
Bilirubin raised (Grade 1-2): 7 (21%) number of patients (%)
GGT increased (Grade 1-2): 2 (6%) number of patients (%)
ALT increased (Grade 3): 2 (6%) number of patients (%)
AST increased (Grade 3): 1 (3%) number of patients (%)
Abdominal pain (Grade 3): 0 (0%) number of patients (%)
Bilirubin raised (Grade 3): 0 (0%) number of patients (%)
GGT increased (Grade 3): 0 (0%) number of patients (%)
ALT increased (Grade 4): 0 (0%) number of patients (%)
AST increased (Grade 4): 1 (3%) number of patients (%)
Abdominal pain (Grade 4): 0 (0%) number of patients (%)
Bilirubin raised (Grade 4): 0 (0%) number of patients (%)
GGT increased (Grade 4): 0 (0%) number of patients (%)
ALT increased (Grade 5): 0 (0%) number of patients (%)
AST increased (Grade 5): 0 (0%) number of patients (%)
Abdominal pain (Grade 5): 0 (0%) number of patients (%)
Bilirubin raised (Grade 5): 0 (0%) number of patients (%)
GGT increased (Grade 5): 0 (0%) number of patients (%)
Dermatitis (Grade 1-2): 2 (6%) number of patients (%)
Hepatitis (Grade 1-2): 2 (6%) number of patients (%)
Others immune-related (Grade 1-2): 5 (15%) number of patients (%)
Dermatitis (Grade 3): 2 (6%) number of patients (%)
Hepatitis (Grade 3): 3 (9%) number of patients (%)
Others immune-related (Grade 3): 0 (0%) number of patients (%)
Dermatitis (Grade 4): 0 (0%) number of patients (%)
Hepatitis (Grade 4): 0 (0%) number of patients (%)
Others immune-related (Grade 4): 0 (0%) number of patients (%)
Dermatitis (Grade 5): 0 (0%) number of patients (%)
Hepatitis (Grade 5): 0 (0%) number of patients (%)
Others immune-related (Grade 5): 0 (0%) number of patients (%)
Amylase increased (Grade 1-2): 0 (0%) number of patients (%)
Anemia (Grade 1-2): 5 (15%) number of patients (%)
Hypercreatinine (Grade 1-2): 3 (9%) number of patients (%)
Hyperglycemia (Grade 1-2): 1 (3%) number of patients (%)
Hypokalemia (Grade 1-2): 6 (18%) number of patients (%)
Hyponatremia (Grade 1-2): 4 (12%) number of patients (%)
Hypothyroidism (Grade 1-2): 5 (15%) number of patients (%)
Leukopenia (Grade 1-2): 6 (18%) number of patients (%)
Lipase increased (Grade 1-2): 0 (0%) number of patients (%)
Neutropenia (Grade 1-2): 1 (3%) number of patients (%)
Thrombocytopenia (Grade 1-2): 4 (12%) number of patients (%)
Hypothyroidism (Grade 1-2, first listing): 0 (0%) number of patients (%)
Amylase increased (Grade 3): 0 (0%) number of patients (%)
Anemia (Grade 3): 0 (0%) number of patients (%)
Hypercreatinine (Grade 3): 0 (0%) number of patients (%)
Hyperglycemia (Grade 3): 0 (0%) number of patients (%)
Hypokalemia (Grade 3): 0 (0%) number of patients (%)
Hyponatremia (Grade 3): 0 (0%) number of patients (%)
Hypothyroidism (Grade 3): 0 (0%) number of patients (%)
Leukopenia (Grade 3): 0 (0%) number of patients (%)
Lipase increased (Grade 3): 0 (0%) number of patients (%)
Neutropenia (Grade 3): 0 (0%) number of patients (%)
Thrombocytopenia (Grade 3): 0 (0%) number of patients (%)
Hypothyroidism (Grade 3, first listing): 0 (0%) number of patients (%)
Amylase increased (Grade 4): 0 (0%) number of patients (%)
Anemia (Grade 4): 0 (0%) number of patients (%)
Hypercreatinine (Grade 4): 0 (0%) number of patients (%)
Hyperglycemia (Grade 4): 0 (0%) number of patients (%)
Hypokalemia (Grade 4): 0 (0%) number of patients (%)
Hyponatremia (Grade 4): 0 (0%) number of patients (%)
Hypothyroidism (Grade 4): 0 (0%) number of patients (%)
Leukopenia (Grade 4): 0 (0%) number of patients (%)
Lipase increased (Grade 4): 0 (0%) number of patients (%)
Neutropenia (Grade 4): 0 (0%) number of patients (%)
Thrombocytopenia (Grade 4): 0 (0%) number of patients (%)
Hypothyroidism (Grade 4, first listing): 0 (0%) number of patients (%)
Amylase increased (Grade 5): 0 (0%) number of patients (%)
Anemia (Grade 5): 0 (0%) number of patients (%)
Hypercreatinine (Grade 5): 0 (0%) number of patients (%)
Hyperglycemia (Grade 5): 0 (0%) number of patients (%)
Hypokalemia (Grade 5): 0 (0%) number of patients (%)
Hyponatremia (Grade 5): 0 (0%) number of patients (%)
Hypothyroidism (Grade 5): 0 (0%) number of patients (%)
Leukopenia (Grade 5): 0 (0%) number of patients (%)
Lipase increased (Grade 5): 0 (0%) number of patients (%)
Neutropenia (Grade 5): 0 (0%) number of patients (%)
Thrombocytopenia (Grade 5): 0 (0%) number of patients (%)
Hypothyroidism (Grade 5, first listing): 0 (0%) number of patients (%)
Dry skin (Grade 1-2): 6 (9%) number of patients (%)
Others (Skin) (Grade 1-2): 0 (0%) number of patients (%)
Pruritus (Grade 1-2): 8 (24%) number of patients (%)
Rash, acneiform (Grade 1-2): 0 (0%) number of patients (%)
Rash, maculopapular (Grade 1-2): 6 (9%) number of patients (%)
Rash, urticarial (Grade 1-2): 2 (6%) number of patients (%)
Dry skin (Grade 3): 0 (0%) number of patients (%)
Others (Skin) (Grade 3): 0 (0%) number of patients (%)
Pruritus (Grade 3): 1 (3%) number of patients (%)
Rash, acneiform (Grade 3): 0 (0%) number of patients (%)
Rash, maculopapular (Grade 3): 1 (3%) number of patients (%)
Rash, urticarial (Grade 3): 1 (3%) number of patients (%)
Dry skin (Grade 4): 0 (0%) number of patients (%)
Others (Skin) (Grade 4): 0 (0%) number of patients (%)
Pruritus (Grade 4): 0 (0%) number of patients (%)
Rash, acneiform (Grade 4): 0 (0%) number of patients (%)
Rash, maculopapular (Grade 4): 0 (0%) number of patients (%)
Rash, urticarial (Grade 4): 0 (0%) number of patients (%)
Dry skin (Grade 5): 0 (0%) number of patients (%)
Others (Skin) (Grade 5): 0 (0%) number of patients (%)
Pruritus (Grade 5): 0 (0%) number of patients (%)
Rash, acneiform (Grade 5): 0 (0%) number of patients (%)
Rash, maculopapular (Grade 5): 0 (0%) number of patients (%)
Rash, urticarial (Grade 5): 0 (0%) number of patients (%)
Permanent discontinuation due to immune-related adverse events (avelumab 10 mg/kg every 2 weeks after TACE and SBRT): two
Median duration of dose interruption (seven patients with interruption): 4 weeks
